To fix the notation:
B1: N^ε1-[(4S)-4-carboxy-4-[[(4S)-4-carboxy-4-(19-carboxynonadecanoylamino)butanoyl]amino]butanoyl]-[Arg17,Pro21,Pro27,Pro31,Pro34,Arg35]-h-amylin (peptide)
peptide: K([γGlu-γGlu-C20 diacid])CNTATCATQRLANFLRHSSPNFGAIPSSTPVGPRTY-NH2
modifications: disulfide 2-7; N-terminus assumed
SMILES: CC[C@H](C)[C@H](NC(=O)[C@H](C)NC(=O)CNC(=O)[C@H](Cc1ccccc1)NC(=O)[C@H](CC(N)=O)NC(=O)[C@@H]1CCCN1C(=O)[C@H](CO)NC(=O)[C@H](CO)NC(=O)[C@H](Cc1c[nH]cn1)NC(=O)[C@H](CCCNC(=N)N)NC(=O)[C@H](CC(C)C)NC(=O)[C@H](Cc1ccccc1)NC(=O)[C@H](CC(N)=O)NC(=O)[C@H](C)NC(=O)[C@H](CC(C)C)NC(=O)[C@H](CCCNC(=N)N)NC(=O)[C@H](CCC(N)=O)NC(=O)[C@@H](NC(=O)[C@H](C)NC(=O)[C@@H]1CSSC[C@H](NC(=O)[C@@H](N)CCCCNC(=O)CC[C@H](NC(=O)CC[C@H](NC(=O)CCCCCCCCCCCCCCCCCCC(=O)O)C(=O)O)C(=O)O)C(=O)N[C@@H](CC(N)=O)C(=O)N[C@@H]([C@@H](C)O)C(=O)N[C@@H](C)C(=O)N[C@@H]([C@@H](C)O)C(=O)N1)[C@@H](C)O)C(=O)N1CCC[C@H]1C(=O)N[C@@H](CO)C(=O)N[C@@H](CO)C(=O)N[C@H](C(=O)N1CCC[C@H]1C(=O)N[C@H](C(=O)NCC(=O)N1CCC[C@H]1C(=O)N[C@@H](CCCNC(=N)N)C(=O)N[C@H](C(=O)N[C@@H](Cc1ccc(O)cc1)C(N)=O)[C@@H](C)O)C(C)C)[C@@H](C)O
B2: N^ε1-[(4S)-4-carboxy-4-[[(4S)-4-carboxy-4-(19-carboxynonadecanoylamino)butanoyl]amino]butanoyl]-[Glu14,Arg17,Pro21,Pro27,Pro34,Glu35,Pro37]-h-amylin (peptide)
peptide: K([γGlu-γGlu-C20 diacid])CNTATCATQRLAEFLRHSSPNFGAIPSSTNVGPETP-NH2
modifications: disulfide 2-7; N-terminus assumed
SMILES: CC[C@H](C)[C@H](NC(=O)[C@H](C)NC(=O)CNC(=O)[C@H](Cc1ccccc1)NC(=O)[C@H](CC(N)=O)NC(=O)[C@@H]1CCCN1C(=O)[C@H](CO)NC(=O)[C@H](CO)NC(=O)[C@H](Cc1c[nH]cn1)NC(=O)[C@H](CCCNC(=N)N)NC(=O)[C@H](CC(C)C)NC(=O)[C@H](Cc1ccccc1)NC(=O)[C@H](CCC(=O)O)NC(=O)[C@H](C)NC(=O)[C@H](CC(C)C)NC(=O)[C@H](CCCNC(=N)N)NC(=O)[C@H](CCC(N)=O)NC(=O)[C@@H](NC(=O)[C@H](C)NC(=O)[C@@H]1CSSC[C@H](NC(=O)[C@@H](N)CCCCNC(=O)CC[C@H](NC(=O)CC[C@H](NC(=O)CCCCCCCCCCCCCCCCCCC(=O)O)C(=O)O)C(=O)O)C(=O)N[C@@H](CC(N)=O)C(=O)N[C@@H]([C@@H](C)O)C(=O)N[C@@H](C)C(=O)N[C@@H]([C@@H](C)O)C(=O)N1)[C@@H](C)O)C(=O)N1CCC[C@H]1C(=O)N[C@@H](CO)C(=O)N[C@@H](CO)C(=O)N[C@H](C(=O)N[C@@H](CC(N)=O)C(=O)N[C@H](C(=O)NCC(=O)N1CCC[C@H]1C(=O)N[C@@H](CCC(=O)O)C(=O)N[C@H](C(=O)N1CCC[C@H]1C(N)=O)[C@@H](C)O)C(C)C)[C@@H](C)O
B3: N^ε1-[(4S)-4-carboxy-4-[[(4S)-4-carboxy-4-(19-carboxynonadecanoylamino)butanoyl]amino]butanoyl]-[Glu14,Arg17,Pro21,Pro27,Arg34,Glu35]-h-amylin (peptide)
peptide: K([γGlu-γGlu-C20 diacid])CNTATCATQRLAEFLRHSSPNFGAIPSSTNVGRETY-NH2
modifications: disulfide 2-7; N-terminus assumed
SMILES: CC[C@H](C)[C@H](NC(=O)[C@H](C)NC(=O)CNC(=O)[C@H](Cc1ccccc1)NC(=O)[C@H](CC(N)=O)NC(=O)[C@@H]1CCCN1C(=O)[C@H](CO)NC(=O)[C@H](CO)NC(=O)[C@H](Cc1c[nH]cn1)NC(=O)[C@H](CCCNC(=N)N)NC(=O)[C@H](CC(C)C)NC(=O)[C@H](Cc1ccccc1)NC(=O)[C@H](CCC(=O)O)NC(=O)[C@H](C)NC(=O)[C@H](CC(C)C)NC(=O)[C@H](CCCNC(=N)N)NC(=O)[C@H](CCC(N)=O)NC(=O)[C@@H](NC(=O)[C@H](C)NC(=O)[C@@H]1CSSC[C@H](NC(=O)[C@@H](N)CCCCNC(=O)CC[C@H](NC(=O)CC[C@H](NC(=O)CCCCCCCCCCCCCCCCCCC(=O)O)C(=O)O)C(=O)O)C(=O)N[C@@H](CC(N)=O)C(=O)N[C@@H]([C@@H](C)O)C(=O)N[C@@H](C)C(=O)N[C@@H]([C@@H](C)O)C(=O)N1)[C@@H](C)O)C(=O)N1CCC[C@H]1C(=O)N[C@@H](CO)C(=O)N[C@@H](CO)C(=O)N[C@H](C(=O)N[C@@H](CC(N)=O)C(=O)N[C@H](C(=O)NCC(=O)N[C@@H](CCCNC(=N)N)C(=O)N[C@@H](CCC(=O)O)C(=O)N[C@H](C(=O)N[C@@H](Cc1ccc(O)cc1)C(N)=O)[C@@H](C)O)C(C)C)[C@@H](C)O
B4: N^ε1-[(4S)-4-carboxy-4-[[(4S)-4-carboxy-4-(19-carboxynonadecanoylamino)butanoyl]amino]butanoyl]-[Glu14,Arg17,Pro21,Pro27,Pro34,Arg35]-h-amylin (peptide)
peptide: K([γGlu-γGlu-C20 diacid])CNTATCATQRLAEFLRHSSPNFGAIPSSTNVGPRTY-NH2
modifications: disulfide 2-7; N-terminus assumed
SMILES: CC[C@H](C)[C@H](NC(=O)[C@H](C)NC(=O)CNC(=O)[C@H](Cc1ccccc1)NC(=O)[C@H](CC(N)=O)NC(=O)[C@@H]1CCCN1C(=O)[C@H](CO)NC(=O)[C@H](CO)NC(=O)[C@H](Cc1c[nH]cn1)NC(=O)[C@H](CCCNC(=N)N)NC(=O)[C@H](CC(C)C)NC(=O)[C@H](Cc1ccccc1)NC(=O)[C@H](CCC(=O)O)NC(=O)[C@H](C)NC(=O)[C@H](CC(C)C)NC(=O)[C@H](CCCNC(=N)N)NC(=O)[C@H](CCC(N)=O)NC(=O)[C@@H](NC(=O)[C@H](C)NC(=O)[C@@H]1CSSC[C@H](NC(=O)[C@@H](N)CCCCNC(=O)CC[C@H](NC(=O)CC[C@H](NC(=O)CCCCCCCCCCCCCCCCCCC(=O)O)C(=O)O)C(=O)O)C(=O)N[C@@H](CC(N)=O)C(=O)N[C@@H]([C@@H](C)O)C(=O)N[C@@H](C)C(=O)N[C@@H]([C@@H](C)O)C(=O)N1)[C@@H](C)O)C(=O)N1CCC[C@H]1C(=O)N[C@@H](CO)C(=O)N[C@@H](CO)C(=O)N[C@H](C(=O)N[C@@H](CC(N)=O)C(=O)N[C@H](C(=O)NCC(=O)N1CCC[C@H]1C(=O)N[C@@H](CCCNC(=N)N)C(=O)N[C@H](C(=O)N[C@@H](Cc1ccc(O)cc1)C(N)=O)[C@@H](C)O)C(C)C)[C@@H](C)O
notes: also called compound 110
B5: N^ε1-[(4S)-4-carboxy-4-[[(4S)-4-carboxy-4-(19-carboxynonadecanoylamino)butanoyl]amino]butanoyl]-[Glu14,Arg17,Pro21,Pro27,His34,Glu35]-h-amylin (peptide)
peptide: K([γGlu-γGlu-C20 diacid])CNTATCATQRLAEFLRHSSPNFGAIPSSTNVGHETY-NH2
modifications: disulfide 2-7; N-terminus assumed
SMILES: CC[C@H](C)[C@H](NC(=O)[C@H](C)NC(=O)CNC(=O)[C@H](Cc1ccccc1)NC(=O)[C@H](CC(N)=O)NC(=O)[C@@H]1CCCN1C(=O)[C@H](CO)NC(=O)[C@H](CO)NC(=O)[C@H](Cc1c[nH]cn1)NC(=O)[C@H](CCCNC(=N)N)NC(=O)[C@H](CC(C)C)NC(=O)[C@H](Cc1ccccc1)NC(=O)[C@H](CCC(=O)O)NC(=O)[C@H](C)NC(=O)[C@H](CC(C)C)NC(=O)[C@H](CCCNC(=N)N)NC(=O)[C@H](CCC(N)=O)NC(=O)[C@@H](NC(=O)[C@H](C)NC(=O)[C@@H]1CSSC[C@H](NC(=O)[C@@H](N)CCCCNC(=O)CC[C@H](NC(=O)CC[C@H](NC(=O)CCCCCCCCCCCCCCCCCCC(=O)O)C(=O)O)C(=O)O)C(=O)N[C@@H](CC(N)=O)C(=O)N[C@@H]([C@@H](C)O)C(=O)N[C@@H](C)C(=O)N[C@@H]([C@@H](C)O)C(=O)N1)[C@@H](C)O)C(=O)N1CCC[C@H]1C(=O)N[C@@H](CO)C(=O)N[C@@H](CO)C(=O)N[C@H](C(=O)N[C@@H](CC(N)=O)C(=O)N[C@H](C(=O)NCC(=O)N[C@@H](Cc1c[nH]cn1)C(=O)N[C@@H](CCC(=O)O)C(=O)N[C@H](C(=O)N[C@@H](Cc1ccc(O)cc1)C(N)=O)[C@@H](C)O)C(C)C)[C@@H](C)O

Numbered stars: 1 amine (or outer) side, 2 acyl side, 3 side chain; on linkers, the order of the positions; unused ones are H or OH. Bridge positions count the residues as written; N and C are the ends. Side chains are listed from the residue outwards. Ends that are not written are not given here. * marks the point of attachment. C20 diacid = O=C(O)CCCCCCCCCCCCCCCCCCC(=O)*; γGlu = O=C(O)[C@H](CCC(=O)[*:2])N[*:1]

For the first test, the target named is T1, human calcitonin receptor (human, UniProt P30988 25-474).
T1 construct: whole, on cells; Membranes of BHK cells stably transfected with the human calcitonin receptor (Assay VII); also called hCTR; hCT
T1 sequence (looked up): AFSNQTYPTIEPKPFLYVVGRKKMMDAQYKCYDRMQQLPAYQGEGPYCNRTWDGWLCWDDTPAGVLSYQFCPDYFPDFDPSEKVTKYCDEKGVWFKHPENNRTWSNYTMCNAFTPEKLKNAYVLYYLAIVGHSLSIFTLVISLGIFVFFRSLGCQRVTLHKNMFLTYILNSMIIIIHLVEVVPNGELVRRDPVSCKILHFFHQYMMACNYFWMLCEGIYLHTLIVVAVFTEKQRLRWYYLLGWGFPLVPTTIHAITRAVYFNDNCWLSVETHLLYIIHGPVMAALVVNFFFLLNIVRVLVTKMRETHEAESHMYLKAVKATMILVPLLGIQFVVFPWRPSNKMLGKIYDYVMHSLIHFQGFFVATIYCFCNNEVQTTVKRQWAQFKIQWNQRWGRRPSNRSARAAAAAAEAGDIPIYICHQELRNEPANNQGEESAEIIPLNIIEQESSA
Briefly: ratio of IC50 at hCTR over IC50 at hAmylin-R (SPA competition assays). The essentials:
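Competition binding by SPA with cell membranes (35 ng/μL) and SPA beads in 50 mM Hepes pH 7.4 with 1 mM CaCl2, 5 mM MgCl2, 0.1% OA and 0.02% Tween20. Incubated 120 min at 25 °C with shaking, then counted.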
B1: the “Ratio hCT/hAmylin binding” value worked out at 48.6.

On to K([γGlu-γGlu-C20 diacid])CNTATCATQRLADFLRHSSPNFGAIPSSTNVGPRTY-NH2 (disulfide 2-7, also called compound 130), for which the “Ratio hCT/hAmylin binding” value is 280.

With B2, the “Ratio hCT/hAmylin binding” value turned out to be 0.4.

With B3, the “Ratio hCT/hAmylin binding” value was found to be 14.7.

Take B4: the “Ratio hCT/hAmylin binding” value worked out at 53.6.

For the molecule B5, the “Ratio hCT/hAmylin binding” value is 29.1.

On to K([γGlu-γGlu-C20 diacid])CNTATCATQRLADFLRHSSPNFGAIPSSTNVGPETY-NH2 (disulfide 2-7), for which the “Ratio hCT/hAmylin binding” value is 49.8.

K([γGlu-γGlu-C20 diacid])CNTATCATQRLAEFLRHSSPNFGAIPSSTNVGPHTY-NH2 (disulfide 2-7 (inferred)): the “Ratio hCT/hAmylin binding” value was 27.3.

The target of another test is T1, human calcitonin receptor. Briefly: SPA competition against 125I-calcitonin, membranes of BHK cells with human calcitonin receptor (Assay VII). The essentials: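 BHK hCTR membranes 35 ng/μL + SPA beads 0.05 mg/well; buffer 50 mM Hepes pH 7.4, 1 mM CaCl2, 5 mM MgCl₂, 0.1% OA, 0.02% Tween20. 120 min, 25° C., shaking. Scintillation count; IC50 by one-site binding competition.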
B1: the concentration for half-maximal inhibition (IC50) came to 42.8 nM.

On to K([γGlu-γGlu-C20 diacid])CNTATCATQRLADFLRHSSPNFGAIPSSTNVGPRTY-NH2 (disulfide 2-7, also called compound 130), for which the IC50 came to 127 nM.

Turning to B2, the half-maximal inhibitory concentration (IC50) was 0.226 nM.

Consider B3, for which the half-maximal inhibitory concentration (IC50) came to 14.1 nM.

B4: the concentration for half-maximal inhibition (IC50) turned out to be 17.5 nM.

Regarding B5, the IC50 is 15.2 nM.

For the molecule K([γGlu-γGlu-C20 diacid])CNTATCATQRLADFLRHSSPNFGAIPSSTNVGPETY-NH2 (disulfide 2-7), the IC50 was found to be 8.56 nM.

Consider K([γGlu-γGlu-C20 diacid])CNTATCATQRLAEFLRHSSPNFGAIPSSTNVGPHTY-NH2 (disulfide 2-7 (inferred)), for which the concentration for half-maximal inhibition (IC50) came out at 10.3 nM.

Broadly, the IC50 is the point on the concentration scale where inhibition reaches its midpoint.
